Drawing on US20250277199, “NOVEL CRISPR-CAS NUCLEASES FROM METAGENOMES” (Brain Biotech AG, published 2025), this text covers activity for 1 molecule.

In this series the target is T1, BMC03 (uncultured bacterium (metagenome)).
T1 chain: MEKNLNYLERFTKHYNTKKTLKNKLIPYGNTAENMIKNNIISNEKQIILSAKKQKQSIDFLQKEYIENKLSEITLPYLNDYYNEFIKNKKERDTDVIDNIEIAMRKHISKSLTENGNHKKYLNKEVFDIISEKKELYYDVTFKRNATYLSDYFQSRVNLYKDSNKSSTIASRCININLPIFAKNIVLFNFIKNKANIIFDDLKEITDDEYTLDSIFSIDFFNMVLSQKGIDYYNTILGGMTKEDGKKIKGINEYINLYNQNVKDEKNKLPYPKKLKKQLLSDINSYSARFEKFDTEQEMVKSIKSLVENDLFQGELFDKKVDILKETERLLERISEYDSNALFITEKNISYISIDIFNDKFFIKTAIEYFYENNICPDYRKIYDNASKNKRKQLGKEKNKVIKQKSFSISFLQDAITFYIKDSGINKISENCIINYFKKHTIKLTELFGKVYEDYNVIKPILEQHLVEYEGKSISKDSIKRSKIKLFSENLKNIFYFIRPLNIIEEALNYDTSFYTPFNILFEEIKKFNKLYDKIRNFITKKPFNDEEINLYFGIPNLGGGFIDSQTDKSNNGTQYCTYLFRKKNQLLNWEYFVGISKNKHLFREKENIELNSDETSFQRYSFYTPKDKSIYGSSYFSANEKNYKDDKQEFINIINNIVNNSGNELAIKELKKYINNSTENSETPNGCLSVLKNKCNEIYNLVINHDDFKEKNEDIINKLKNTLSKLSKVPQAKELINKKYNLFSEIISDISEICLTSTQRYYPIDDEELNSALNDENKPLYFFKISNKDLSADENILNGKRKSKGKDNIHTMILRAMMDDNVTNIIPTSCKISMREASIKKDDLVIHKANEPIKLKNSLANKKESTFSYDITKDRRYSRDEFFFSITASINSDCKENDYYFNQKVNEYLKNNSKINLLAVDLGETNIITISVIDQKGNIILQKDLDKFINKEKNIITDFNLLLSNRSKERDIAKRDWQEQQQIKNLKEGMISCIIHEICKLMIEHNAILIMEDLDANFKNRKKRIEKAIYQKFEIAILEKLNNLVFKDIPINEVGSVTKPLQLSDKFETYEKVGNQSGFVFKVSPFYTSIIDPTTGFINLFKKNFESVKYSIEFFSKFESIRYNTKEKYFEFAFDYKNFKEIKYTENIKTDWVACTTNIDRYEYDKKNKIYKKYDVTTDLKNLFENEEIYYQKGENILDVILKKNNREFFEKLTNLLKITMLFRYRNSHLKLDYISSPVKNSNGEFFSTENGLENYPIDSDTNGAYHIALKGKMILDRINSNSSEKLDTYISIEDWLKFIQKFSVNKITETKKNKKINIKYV
The experiment in a line: cell_activity; PAM not stated; E. coli depletion, 30 C. In a few lines:
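E. coli carrying arabinose-induced (0.2%) BMC nuclease, grown at 30° C., made electrocompetent and electroporated with 50-100 ng plasmid carrying gRNA against malQ. Transformants plated on selective M9-glucose agar with kanamycin/ampicillin (± nourseothricin), and growth scored after 48 h at 30° C.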

B1: malQ gRNA (BMC stem-loop + 24 nt spacer) ; malQ protospacer (ssRNA ; dsDNA)
RNA: GAUUUCUACUAUUGUAGAUGUGGCGGUACGUUGAUGCAUCGCG
DNA 1: GTGGCGGTACGTTGATGCATCGCG
DNA 2: CGCGATGCATCAACGTACCGCCAC
B1 had an activity greater than 99.9 % colony reduction.
